24 molecules from patent US20130133089A1 (MEDICAL RESEARCH INFRASTRUCTURE AND HEALTH SERVICES FUND OF …, published 2013) can be followed below.

Numbering of substitutions follows the chain as printed. In names and notes the source's numbering stands. Several values for one entry are separate records, joined by “and”; a condition that tells them apart may be missing. Equal values may be shown once.

The term Kd denotes a measure of binding affinity in units of concentration.

First the molecules themselves.
T1: Recombinant human leptin binding domain (hLBD) (human, UniProt P48357 428-635, biotinylated with Sulfo-NHS-LC-Biotin in the yeast display assays; not labelled when immobilized in the plate binding assay)
T1 construct: CRH2 sub-domain of the leptin receptor; Prepared in the applicants' laboratory; also called soluble human leptin receptor; CHR2
T1 sequence (looked up): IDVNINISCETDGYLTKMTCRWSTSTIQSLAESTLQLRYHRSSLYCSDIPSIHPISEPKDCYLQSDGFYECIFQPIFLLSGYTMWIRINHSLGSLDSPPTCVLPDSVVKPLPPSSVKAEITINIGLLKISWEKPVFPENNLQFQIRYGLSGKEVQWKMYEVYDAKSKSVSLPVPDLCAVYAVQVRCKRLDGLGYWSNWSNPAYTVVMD

B1: human leptin super antagonist (SHLA), human leptin D23L/L39A/D40A/F41A, P41159 22-167 (ligand)
chain: VPIQKVQDDTKTLIKTIVTRINLISHTQSVSSKQKVTGAAAIPGLHPILTLSKMDQTLAVYQQILTSMPSQNVIQISNDLENLRDLLHVLAFSKSCHLPWASGLETLDSLGGVLEASGYSTEVVALSRLQGSLQDMLWQLDLSPGC
B2: mouse leptin antagonist H15 (D23G, L68M, S97F, S132Y + L39A/D40A/F41A), P41160 22-167 (ligand)
chain: AVPIQKVQDDTKTLIKTIVTRINGISHTQSVSAKQRVTGAAAIPGLHPILSLSKMDQTLAVYQQVLTSMPSQNVLQIANDLENLRDLLHLLAFSKSCFLPQTSGLQKPESLDGVLEASLYSTEVVALSRLQGYLQDILQQLDVSPEC
B3: mouse leptin antagonist H19 (D23G, T37A, G44D + L39A/D40A/F41A), P41160 22-167 (ligand)
chain: B2 chain with T38A, G45D, M69L, F98S, Y133S
B4: mouse leptin antagonist H22 (T12I + L39A/D40A/F41A), P41160 22-167 (ligand)
chain: B2 chain with T13I, G24D, M69L, F98S, Y133S
B5: recombinant mouse leptin mutein H22 (T12I), agonist, P41160 22-167 (ligand)
chain: B2 chain with T13I, G24D, A40L, A41D, A42F, M69L, F98S, Y133S
B6: mouse leptin antagonist H16 (D23G, G112S + L39A/D40A/F41A), P41160 22-167 (ligand)
chain: B2 chain with M69L, F98S, G113S, Y133S
B7: mouse leptin antagonist H12 (S97Y + L39A/D40A/F41A), P41160 22-167 (ligand)
chain: B2 chain with G24D, M69L, F98Y, Y133S
B8: pegylated mouse leptin antagonist (PEG-MLA), P41160 22-167 (ligand)
chain: B2 chain with G24D, M69L, F98S, Y133S
modifications: here or on the partner: pegylated (method previously described for MLA; 20 kDa PEG, site not restated here)
B9: recombinant mouse leptin mutein H12 (S97Y), agonist, P41160 22-167 (ligand)
chain: B2 chain with G24D, A40L, A41D, A42F, M69L, F98Y, Y133S
B10: recombinant mouse leptin mutein H15 (D23G, L68M, S97F, S132Y), agonist, P41160 22-167 (ligand)
chain: B2 chain with A40L, A41D, A42F
B11: superactive mouse leptin antagonist (SMLA), D23L/L39A/D40A/F41A mouse leptin, P41160 22-167 (ligand)
chain: VPIQKVQDDTKTLIKTLVTRINLISHTQSVSAKQRVTGAAAIPGLHPILSLSKMDQTLAVYQQVLTSLPSQNVLQIANDLENLRDLLHLLAFSKSCSLPQTSGLQKPESLDGVLEASLYSTEVVALSRLQGSLQDILQQVDLSPGC
B12: pegylated superactive mouse leptin antagonist (PEG-SMLA), P41160 22-167 (ligand)
chain: B11 chain
modifications: here or on the partner: mPEG-propionyl-ALD 20 kDa, preferentially on the N-terminal amino group (85% monopegylated, ~9% double pegylated)
B13: wild type mouse leptin displayed on yeast as Aga2p fusion (ligand, UniProt P41160 22-167, looked up, not shown: large carriers; small tags and cut ends)
chain: B11 chain with L17I, L23D, A39L, A40D, A41F, V140L, L142V, G145E
notes: mature; also called mlep wt; mlep, wt1
B14: yeast-displayed mouse leptin clone H17 (S109F) (ligand, UniProt P41160 22-167, looked up, not shown: large carriers; small tags and cut ends)
chain: B11 chain with L17I, L23D, A39L, A40D, A41F, S109F, V140L, L142V, G145E
notes: mature
B15: yeast-displayed mouse leptin clone H12 (S97Y) (ligand, UniProt P41160 22-167, looked up, not shown: large carriers; small tags and cut ends)
chain: B11 chain with L17I, L23D, A39L, A40D, A41F, S97Y, V140L, L142V, G145E
notes: mature; also called H20; H24
B16: yeast-displayed mouse leptin clone H3 (D23G, L68M, S97F, S132Y) (ligand, UniProt P41160 22-167, looked up, not shown: large carriers; small tags and cut ends)
chain: VPIQKVQDDTKTLIKTIVTRINGISHTQSVSAKQRVTGLDFIPGLHPILSLSKMDQTLAVYQQVLTSMPSQNVLQIANDLENLRDLLHLLAFSKSCFLPQTSGLQKPESLDGVLEASLYSTEVVALSRLQGYLQDILQQLDVSPEC
notes: mature; also called H15; H4
B17: yeast-displayed mouse leptin clone H30 (D23H) (ligand, UniProt P41160 22-167, looked up, not shown: large carriers; small tags and cut ends)
chain: B16 chain with G23H, M68L, F97S, Y132S
notes: mature
B18: yeast-displayed mouse leptin clone H7 (K11R, Q34R, T37A, F92C, S97Y, I136V) (ligand, UniProt P41160 22-167, looked up, not shown: large carriers; small tags and cut ends)
chain: B16 chain with K11R, G23D, Q34R, T37A, M68L, F92C, F97Y, Y132S, I136V
notes: mature; also called H18; H27
B19: yeast-displayed mouse leptin clone H22 (T12I) (ligand, UniProt P41160 22-167, looked up, not shown: large carriers; small tags and cut ends)
chain: B16 chain with T12I, G23D, M68L, F97S, Y132S
notes: mature
B20: yeast-displayed mouse leptin clone H19 (D23G, T37A, G44D) (ligand, UniProt P41160 22-167, looked up, not shown: large carriers; small tags and cut ends)
chain: B16 chain with T37A, G44D, M68L, F97S, Y132S
notes: mature
B21: yeast-displayed mouse leptin clone L1 (D23N, Q34L, L114P) (ligand, UniProt P41160 22-167, looked up, not shown: large carriers; small tags and cut ends)
chain: B16 chain with G23N, Q34L, M68L, F97S, L114P, Y132S
notes: mature
B22: yeast-displayed mouse leptin clone H2 (A125T, S132Y) (ligand, UniProt P41160 22-167, looked up, not shown: large carriers; small tags and cut ends)
chain: B16 chain with G23D, M68L, F97S, A125T
notes: mature
B23: yeast-displayed mouse leptin clone H16 (D23G, G112S) (ligand, UniProt P41160 22-167, looked up, not shown: large carriers; small tags and cut ends)
chain: B16 chain with M68L, F97S, G112S, Y132S
notes: mature
B24: yeast-displayed mouse leptin clone H6 (D23G, V30D, Y119H) (ligand, UniProt P41160 22-167, looked up, not shown: large carriers; small tags and cut ends)
chain: B16 chain with V30D, M68L, F97S, Y119H, Y132S
notes: mature

In the first test the target is long form of human leptin receptor (hLEPR) on BAF/3 or H-49 (HEK-293) cells (human), P48357. Nature of the test: cell-based or functional assay.
long form of human leptin receptor (hLEPR) on BAF/3 or H-49 (HEK-293) cells (human), P48357, sequence (P48357 22-1165): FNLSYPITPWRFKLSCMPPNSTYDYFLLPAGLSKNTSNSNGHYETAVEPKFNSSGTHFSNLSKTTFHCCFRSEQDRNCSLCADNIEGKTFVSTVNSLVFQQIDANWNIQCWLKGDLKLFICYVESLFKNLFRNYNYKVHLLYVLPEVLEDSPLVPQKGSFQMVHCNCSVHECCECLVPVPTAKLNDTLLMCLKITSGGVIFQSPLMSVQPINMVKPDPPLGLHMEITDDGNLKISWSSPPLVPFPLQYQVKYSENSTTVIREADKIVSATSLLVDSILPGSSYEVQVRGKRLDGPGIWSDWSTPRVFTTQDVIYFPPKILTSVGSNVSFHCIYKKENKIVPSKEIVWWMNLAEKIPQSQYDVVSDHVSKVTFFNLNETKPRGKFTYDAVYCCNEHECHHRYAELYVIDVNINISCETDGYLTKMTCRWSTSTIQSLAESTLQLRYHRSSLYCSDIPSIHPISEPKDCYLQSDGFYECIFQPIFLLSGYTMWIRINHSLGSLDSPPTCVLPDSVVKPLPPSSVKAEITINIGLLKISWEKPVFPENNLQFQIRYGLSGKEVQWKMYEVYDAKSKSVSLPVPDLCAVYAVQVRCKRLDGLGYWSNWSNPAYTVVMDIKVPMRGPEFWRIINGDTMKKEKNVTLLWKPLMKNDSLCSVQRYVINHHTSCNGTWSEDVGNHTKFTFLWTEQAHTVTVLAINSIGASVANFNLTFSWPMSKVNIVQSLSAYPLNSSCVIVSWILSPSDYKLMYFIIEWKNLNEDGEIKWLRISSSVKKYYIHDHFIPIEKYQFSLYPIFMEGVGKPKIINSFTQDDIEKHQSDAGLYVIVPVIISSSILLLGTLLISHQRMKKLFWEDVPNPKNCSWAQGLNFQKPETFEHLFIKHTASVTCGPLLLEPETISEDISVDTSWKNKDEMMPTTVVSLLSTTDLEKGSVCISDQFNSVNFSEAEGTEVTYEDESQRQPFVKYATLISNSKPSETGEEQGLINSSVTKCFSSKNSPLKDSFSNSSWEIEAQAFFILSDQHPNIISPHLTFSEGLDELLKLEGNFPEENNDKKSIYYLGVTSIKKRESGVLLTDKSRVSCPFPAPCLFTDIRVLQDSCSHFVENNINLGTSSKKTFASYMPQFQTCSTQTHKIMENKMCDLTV
Consider B1, for which the biological (inhibitory) activity, FIG. 12A: fold higher than that of HLA was more than 9 fold.
For the molecule B2, the BAF/3 bioassay: fold increase in bioactivity as compared to the WT mouse leptin antagonist turned out to be 4.8 fold and the Luciferase bioassay: fold increase in bioactivity as compared to the WT mouse leptin antagonist was 4.2 fold.
On the same counts, the results for B3 are 3.5 fold and 2.9 fold.
Consider B4, for which the BAF/3 bioassay: fold increase in bioactivity as compared to the WT mouse leptin antagonist is 2.4 fold and the Luciferase bioassay: fold increase in bioactivity as compared to the WT mouse leptin antagonist stood at 3.3 fold.
Regarding B5, the BAF/3 bioassay: fold increase in bioactivity as compared to the WT mouse leptin stood at 0.8 fold and the Luciferase bioassay: fold increase in bioactivity as compared to the WT mouse leptin was 0.7 fold.
For the molecule B6, the BAF/3 bioassay: fold increase in bioactivity as compared to the WT mouse leptin antagonist came out at 3.3 fold and the Luciferase bioassay: fold increase in bioactivity as compared to the WT mouse leptin antagonist is 3.3 fold.
With B7, the BAF/3 bioassay: fold increase in bioactivity as compared to the WT mouse leptin antagonist is 0.8 fold and the Luciferase bioassay: fold increase in bioactivity as compared to the WT mouse leptin antagonist came out at 0.1 fold.
In turn, B8 returned a biological activity: fold reduction by pegylation of MLA of 7 fold.
Turning to B9, the BAF/3 bioassay: fold increase in bioactivity as compared to the WT mouse leptin was found to be 0.9 fold and the Luciferase bioassay: fold increase in bioactivity as compared to the WT mouse leptin was found to be 0.7 fold.
On to B10, for which the BAF/3 bioassay: fold increase in bioactivity as compared to the WT mouse leptin was found to be 0.5 fold and the Luciferase bioassay: fold increase in bioactivity as compared to the WT mouse leptin is 0.8 fold.
Regarding B11, the BAF/3 bioassay: fold increase in bioactivity as compared to the WT mouse leptin antagonist turned out to be 13.9 fold; the Luciferase bioassay: fold increase in bioactivity as compared to the WT mouse leptin antagonist came to 13.4 fold; the biological (inhibitory) activity, FIG. 12A: fold higher than that of HLA is more than 9 fold.
As for B12, the biological activity in H-49 cells: fold reduction as compared to the non-pegylated SMLA amounted to 9 fold.

For the next test, the target named is T1, Recombinant human leptin binding domain …. Put plainly: yeast display, flow cytometry titration with biotinylated hLBD (FIG. 4A). The source says: (§1) Those 7 mouse leptin mutants were selected for preparation of respectively mutated leptins expressed in E. coli.
Regarding B13, the Kd is 159 nM and 115 nM.
Turning to B14, the Bmax stood at 3600 MFI and the Kd came to 620 nM.
On the same counts, the results for B15 are 961 MFI and 130 nM.
B16: the Bmax was determined as 1450 MFI and the Kd came to 91.7 nM.
On the same counts, the results for B17 are 847 MFI and 59.5 nM.
The like results for B18 were, in that order, 1590 MFI and 126 nM.
The like results for B19 were, in that order, 852 MFI and 122 nM.
Take B20: the Bmax was determined as 968 MFI and the Kd stood at 104 nM.

Another test shares this target. Put plainly: yeast display, flow cytometry titration with biotinylated hLBD (FIG. 4B).
Text: as §1
(Flow cytometry measures light scatter and fluorescence of single cells or particles in a stream.)
As for B13, the Kd is 95 nM and 95.7 nM.
As to B21, the Bmax came out at 1680 MFI and the Kd came out at 158 nM.
Take B15: the Bmax is 785 MFI and the Kd worked out at 103 nM.
The like results for B16 were, in that order, 1350 MFI and 92.8 nM.
The like results for B22 were, in that order, 2570 MFI and 243 nM.
The like results for B17 were, in that order, 741 MFI and 40.9 nM.
B18: the Bmax is 1140 MFI and the Kd was 83.5 nM.
For the molecule B23, the Bmax was found to be 550 MFI and the Kd was found to be 44 nM.
The like results for B19 were, in that order, 719 MFI and 82.3 nM.
On the same counts, the results for B20 are 966 MFI and 68.4 nM.
The like results for B24 were, in that order, 1290 MFI and 99.1 nM.
